# Laboratory results reported in paper PMC13056530.
# Molecular target: RorSlfn5, Schlafen nuclease fused to an Ig-like domain, from Raoultella ornithinolytica (Raoultella ornithinolytica)
# Test: SEC-MALS
substance,measurement,value
"RorSlfn5, Schlafen nuclease fused to an Ig-like domain, from Raoultella ornithinolytica (enzyme)",stoichiometry N,6
